B1: DARPin 3.5B (designed binder, not shown: small tags and cut ends)
chain: GSDLGKKLLEAARAGQDDEVRILMANGADVNAKDTFGETPLHLAAWKGHLEIVEVLLKYGADVNASDLLGRTPLHLAAWRGHLEIVEVLLKNGADVNASDTGGYTPLHLAAALGHLEIVEVLLKHGADVNAQDKFGKTAFDISIDNGNEDLAEILQSSS
B2: DARPin 1.2E (designed binder, not shown: small tags and cut ends)
chain: GSDLGKKLLEAARAGQDDEVRILMANGADVNAYDARGVTPLHLAAFSGHLEIVEVLLKNGADVNAIDVIGMTPLHLAAWIGHLEIVEVLLKHGADVNAVDRSGNTPLHLAAWLGHLEIVEVLLKYGADVNAQDKFGKTAFDISIDNGNEDLAEILQSSS
B3: DARPin U3 (designed binder, not shown: small tags and cut ends)
chain: GSDLGKKLLEAARAGQDDEVRILMANGADVNADDRIGMTPLHLAAIGGHLEIVEVLLKNGADVNADDVHGRTPLHLAAGRGHLEIVEVLHGADVNAPDRWGRTPLHLAAHHGHLEIVEVLLKYGADVNAQDKFGKTAFDISIDSGNEDLAEILQSSS
B4: DARPin 1.4E (designed binder, not shown: small tags and cut ends)
chain: GSDLGKKLLEAARAGQDDEVRILMANGADVNATDHLGVTPLHLAAVLGHLEIVEVLLKHGADVNAYDILGRTPLHLAAWRGHLEIVEVLLKYGADVNADDTSGTTPLHLAAGEGHLEIVEVLLKYGADVNAQDKFGKTAFDISIDNGNEDLAEILQSSS

Target: Clostridium difficile toxin B (TcdB) from C. difficile strain VPI 10463 (ribotype 087) (Clostridium difficile strain VPI 10463, UniProt P18177 2-2366)
Sequence (P18177 2-2366): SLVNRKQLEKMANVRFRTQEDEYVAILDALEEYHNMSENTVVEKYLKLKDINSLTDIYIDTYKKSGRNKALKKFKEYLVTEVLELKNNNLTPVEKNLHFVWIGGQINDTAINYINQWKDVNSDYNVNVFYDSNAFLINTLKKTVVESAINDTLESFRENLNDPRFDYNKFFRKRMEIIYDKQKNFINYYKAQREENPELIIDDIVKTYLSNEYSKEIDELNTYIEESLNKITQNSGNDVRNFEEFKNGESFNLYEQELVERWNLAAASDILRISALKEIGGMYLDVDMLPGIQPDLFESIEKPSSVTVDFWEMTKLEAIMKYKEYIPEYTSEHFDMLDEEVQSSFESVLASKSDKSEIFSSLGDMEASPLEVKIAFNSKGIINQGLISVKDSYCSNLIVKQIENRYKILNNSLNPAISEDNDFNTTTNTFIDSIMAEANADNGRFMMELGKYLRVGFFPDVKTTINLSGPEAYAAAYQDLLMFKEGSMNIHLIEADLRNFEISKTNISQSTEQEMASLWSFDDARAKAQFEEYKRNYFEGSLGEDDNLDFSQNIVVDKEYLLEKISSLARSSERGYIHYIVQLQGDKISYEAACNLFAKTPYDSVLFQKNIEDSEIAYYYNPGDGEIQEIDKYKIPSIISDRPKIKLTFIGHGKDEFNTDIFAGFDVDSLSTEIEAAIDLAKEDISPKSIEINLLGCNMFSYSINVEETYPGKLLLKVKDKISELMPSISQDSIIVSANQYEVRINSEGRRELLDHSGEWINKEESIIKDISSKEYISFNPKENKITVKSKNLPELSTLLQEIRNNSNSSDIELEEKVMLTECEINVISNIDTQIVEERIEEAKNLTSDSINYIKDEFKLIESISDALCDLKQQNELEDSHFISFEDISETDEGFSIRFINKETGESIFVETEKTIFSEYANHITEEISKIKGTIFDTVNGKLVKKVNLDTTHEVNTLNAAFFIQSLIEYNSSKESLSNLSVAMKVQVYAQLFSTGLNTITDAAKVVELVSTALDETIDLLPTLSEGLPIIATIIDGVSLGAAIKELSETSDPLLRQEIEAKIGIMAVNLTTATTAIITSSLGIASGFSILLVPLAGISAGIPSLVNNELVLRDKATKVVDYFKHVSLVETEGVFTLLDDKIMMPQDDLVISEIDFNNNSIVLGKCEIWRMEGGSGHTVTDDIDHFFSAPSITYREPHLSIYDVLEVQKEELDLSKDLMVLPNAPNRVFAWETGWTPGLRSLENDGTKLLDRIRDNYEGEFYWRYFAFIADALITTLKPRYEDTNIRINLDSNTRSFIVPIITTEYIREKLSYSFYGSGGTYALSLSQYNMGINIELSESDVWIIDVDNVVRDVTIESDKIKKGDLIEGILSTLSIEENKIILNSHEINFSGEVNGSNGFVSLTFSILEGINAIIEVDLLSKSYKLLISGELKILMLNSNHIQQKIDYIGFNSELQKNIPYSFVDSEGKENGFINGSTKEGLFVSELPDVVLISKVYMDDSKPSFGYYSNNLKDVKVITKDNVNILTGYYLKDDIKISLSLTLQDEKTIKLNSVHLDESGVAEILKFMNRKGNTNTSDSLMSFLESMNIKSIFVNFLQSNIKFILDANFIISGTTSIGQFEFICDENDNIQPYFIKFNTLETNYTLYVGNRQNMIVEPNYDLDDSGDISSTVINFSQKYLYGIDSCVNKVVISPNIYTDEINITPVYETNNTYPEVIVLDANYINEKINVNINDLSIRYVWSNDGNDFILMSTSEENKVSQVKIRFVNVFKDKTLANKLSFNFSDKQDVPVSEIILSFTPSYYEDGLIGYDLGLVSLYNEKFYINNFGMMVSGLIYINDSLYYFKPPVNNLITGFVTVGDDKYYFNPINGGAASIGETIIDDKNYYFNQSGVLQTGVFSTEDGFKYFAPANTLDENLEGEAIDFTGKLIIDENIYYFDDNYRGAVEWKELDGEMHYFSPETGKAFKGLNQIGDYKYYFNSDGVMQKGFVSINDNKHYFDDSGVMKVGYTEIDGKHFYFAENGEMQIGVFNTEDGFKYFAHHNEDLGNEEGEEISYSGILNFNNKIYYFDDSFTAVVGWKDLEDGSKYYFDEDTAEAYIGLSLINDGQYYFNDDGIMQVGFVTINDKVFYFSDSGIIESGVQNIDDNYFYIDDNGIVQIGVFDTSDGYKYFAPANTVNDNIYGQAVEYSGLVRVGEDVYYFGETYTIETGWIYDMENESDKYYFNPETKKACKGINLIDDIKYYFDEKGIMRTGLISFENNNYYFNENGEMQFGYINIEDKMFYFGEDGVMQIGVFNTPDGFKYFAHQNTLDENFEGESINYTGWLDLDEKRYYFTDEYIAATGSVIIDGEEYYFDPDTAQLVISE
Assay: cell-based or functional assay

Binder	EC50 of TcdB neutralization (Vero cells, CellTiterGlo) [nM]	also measured
B1	–	toxin-neutralization EC50: 13.3 nM
B2	2.4	–
B3	–	toxin-neutralization EC50 (Vero cells): > 25 nM
B4	3	–

Reference: patent publication US20220226430A1 (TEXAS A AND M UNIVERSITY SYSTEM, published 2022)
